Measurements taken from patent US20230135471A1, “UBIQUITIN VARIANTS WITH IMPROVED AFFINITY FOR 53BP1” (Integrated DNA Technologies, Inc., priority 2021, published 2023).

How the values were obtained:
[1] = target: 53BP1 (amino acids 1484-1603) fused to MBP (Homo sapiens, UniProt Q12888); assay: Biolayer interferometry (BLI) of purified His-tagged Ubvs, 1:1 binding model global fit; conditions: for Response: second experiment, longer association (360 seconds; i53 90 seconds)
Description: In order to assess the effect of mutations identified from the two-hybrid screen on the affinity of the Ubvs for 53BP1, Ubvs consisting of the i53 sequence with an N-terminal His tag and short flexible linker plus individual or combinations of screen-identified mutations were purified from E. coli (Table 3). Biolayer interferometry was used to measure the affinity of the purified proteins. Briefly, a purified Ubv was diluted in reaction buffer (1×PBS pH7.4, 0.1 mg/mL BSA, 0.001% Tween 20) to 2 ug/mL. Purified 53BP1 (amino acids 1484-1603) fused to MBP was diluted in reaction buffer to between 20 μM and 10 nM (Table 3, Table 4)). For each Ubv, 8 Ni-NTA sensor tips were hydrated and then loaded with the 2 ug/ml of a Ubv for 30 seconds. Sensor tips were then incubated in reaction buffer for 45 seconds to obtain a baseline. Tips were then moved into either empty buffer or seven different concentrations of purified 53BP1 and the association was measured. Tips were then moved back into reaction buffer and the dissociation was measured. Kon, Koff, and Kd were calculated using a 1:1 binding model using a global fit (Table 4).
A second experiment was performed using CM1 and CM7 using a longer association time (360 seconds) to allow binding to closer approach equilibrium. The BLI response vs 53BP1 fragment concentration was plotted in prism to calculate the Kd using a one site-specific binding nonlinear fit model. An i53 response was plotted on the same graph however the association time used (90 seconds) was shorter due to needing a shorter time to reach equilibrium because of the fast off rate of i53 (FIG. 5B, FIG. 5C, Table 4).

[2] = test system: HDR at a Cas9 cut site in CLTA in K562 cells; assay: HDR insertion of 729 bp GFP coding sequence at CLTA, measured by ONT sequencing; type: cell-based; conditions: dsDNA donor (large insert), Ubv 37.5 μM, IDT-E 1 μM for 24 hours
Description: FIG. 12A illustrates use of a ubiquitin variant with high affinity for 53BP1 provides an additional benefit to HDR over the use of a DNA-PK inhibitor alone. […] Ubiquitin variants were delivered alongside 2 μM Cas9 RNP at 37.5 μM final concentration. IDT-E was added to media post nucleofection for 24 hours at 1 μM final dose. Double stranded DNA donor with 200 bp homology arms was delivered at 1.5 μg per nucleofection.
(§1) We tested if our ubiquitin variants provided a further benefit over inhibition of common NHEJ pathway targets alone by using the DNA-PK inhibitor IDT enhancer (IDT-E) in combination with CM1 in the context of both large and small inserts (Table 7). […] Without limiting the claimed subject matter to a particular mode or mechanism of action, we hypothesize that our ubiquitin variants targeting 53BP1 will be a useful in facilitating increased HIDR when used in combination with other inhibitors of NHEJ pathway components.

[3] = test system: HDR at a Cas9 cut site in MET in HEK293 cells; assay: HDR (6 nt insert) at MET measured by EcoR1 cleavage; type: cell-based; conditions: Alt-R HDR donor oligo (small insert), CM1 […], IDT-E 1 μM for 24 hours
Source text: as §1

[4] = test system: HDR at HPRT1 in HEK293 cells that constitutively express HiFi Cas9 / Jurkat cells; assay: HDR at HPRT1 by EcoR1 cleavage assay, Ubv delivered as expression plasmid; type: cell-based; conditions: 154 ng plasmid encoding His-tagged Ubv, versus LbCas12a crRNA plasmid negative control
Description: Error bars indicate the standard deviation from two replicates.
In order to test if CM1 is effective at increasing HDR rates when delivered in other forms, plasmid or mRNA encoding CM1 was introduced into cells and the effects on HDR rates were analyzed. […] After 72 hours, genomic DNA was extracted using QuickExtract (Lucigen) and editing was analyzed by PCR amplification of the HPRT1 target site followed by EcoR1 restriction enzyme digestion. Digested product was run on a Fragment Analyzer (AATI).

[5] = test system: HDR at HPRT1 in HEK293 cells; assay: HDR at HPRT1 by EcoR1 cleavage assay, tag-free versus His-tagged CM1 protein; type: cell-based; conditions: HEK293, HPRT1, 50 μM to […] ubiquitin variant
Description: Data is shown for two biological replicates with lines connecting the means. The dashed line indicates the level of EcoR1 cleavage when no enhancer is used (n=3, standard deviation <2%).
A tag-free version of CM1 (CM1tf, SEQ ID NO:482) was compared with the His6-tagged version of CM1 (SEQ ID NO:241) for their ability to enhance HDR in HEK293 cells as has been described in previous examples. Briefly, 2 uM Cas9 RNP targeting a site in HPRT1 and 2 uM ssDNA donor containing 40 bp homology arms flanking a 6 bp EcoR1 cut site insert sequence were delivered into HEK293 cells with varying amounts of CM1tf (CM1tf, SEQ ID NO:482) or His-tagged CM1 (CM1; SEQ ID NO:241) using Lonza nucleofection. Genomic DNA was isolated after 48 hours, and editing was measured using an EcoR1 cleavage assay.

[6] = target: T1, fragment of 53BP1 (a.a. 1221-1718) (Homo sapiens, UniProt Q12888); assay: BACTH two-hybrid pooled screen in E. coli, FACS sorting of GFP positive cells and NGS enrichment of i53 amino acid changes; type: cell-based
T1 construct: a fragment of 53BP1 (a.a. 1221-1718); expressed in transfected cells; host or cells: E. coli DHM1
T1 sequence (Q12888 1221-1718): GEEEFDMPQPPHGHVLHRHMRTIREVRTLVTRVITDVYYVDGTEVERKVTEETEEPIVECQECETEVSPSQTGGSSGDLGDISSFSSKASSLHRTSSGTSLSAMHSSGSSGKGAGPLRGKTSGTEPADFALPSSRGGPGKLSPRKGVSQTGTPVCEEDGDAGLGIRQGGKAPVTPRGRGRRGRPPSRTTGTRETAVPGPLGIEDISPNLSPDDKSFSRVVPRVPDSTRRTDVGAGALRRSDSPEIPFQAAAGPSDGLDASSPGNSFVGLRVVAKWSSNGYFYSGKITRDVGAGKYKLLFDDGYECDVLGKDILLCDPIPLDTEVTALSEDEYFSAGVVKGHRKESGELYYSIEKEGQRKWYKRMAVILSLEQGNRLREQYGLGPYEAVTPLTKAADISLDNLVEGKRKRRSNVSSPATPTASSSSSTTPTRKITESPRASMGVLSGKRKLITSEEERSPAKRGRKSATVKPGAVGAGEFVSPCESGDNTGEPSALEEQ
Source text: (§2) In order to identify mutations that improve the affinity of i53 for 53BP1, the bacterial adenylate cyclase two-hybrid system (BACTH system) was used to screen for interaction between the two proteins. This method makes use of a B. pertussis calmodulin-dependent adenylate cyclase toxin. The catalytic domain of the toxin can be separated into two fragments (T18 and T25) that are able to associate in the presence of calmodulin but have minimal activity in its absence. If bait and prey proteins fused to T18 and T25 interact, then the catalytic activity is restored and cAMP is produced. In E. coli, cAMP binds to catabolite activator protein (CAP) that acts as a transcriptional activator for several genes. By expressing these fusion proteins in an E. coli strain that lacks endogenous adenylate cyclase and naturally lacks calmodulin, cAMP regulated protein expression can be used as a readout of bait-prey interaction. We engineered the screen so that eGFP will be expressed under the control of a cAMP-regulated promoter. The coding sequence for a fragment of 53BP1 (a.a. 1221-1718) containing the i53 interacting regions and i53 were cloned into T18 and T25 adenylate cyclase expression plasmids such that fusion proteins of each would be expressed. If a Ubv interacts with 53BP1, the T18 and T25 fragments will be brought together, adenylate cyclase activity will be restored, cAMP will be produced, and some portion of the bacterial population will be GFP positive.
A plasmid library was made consisting of Ubv-adenylate cyclase fragment fusion protein plasmids that had on average a single codon within the i53 coding region exchanged for a random NNK codon. Plasmids were transformed into DHM1 cells that lack endogenous adenylate cyclase and contain the plasmid for expression of the 53BP1 fragment fused to one of the adenylate cyclase fragments. Expression of eGFP was used as a readout of bait-prey interaction using fluorescence activated cell sorting (FACS) to sort for GFP positive bacteria. Plasmid DNA was isolated from both the sorted GFP positive bacteria (Positive) and from the original pre-sort population (Input) and was sequenced using NGS. Counts were merged for mutations that result in the same amino acid change using Enrich2 [25]. Enrichment was calculated as enrichment=log 2((read count for an amino acid change in the positive population/read count for an amino acid change in the input)/(synonymous change read count in the positive population/synonymous change read count in the input)). […] For each experiment, DHM1 cells were transformed with the Ubv fusion protein plasmid library in two separate replicates using a gene pulser (Bio-Rad). The i53-adenylate cyclase fragment fusion protein (published i53 peptide, SEQ ID NO:2) plasmid was also introduced separately as a control to estimate selection pressure. Cells were then grown and sorted using FACS and GFP positive cells were collected. Two separate experiments were conducted on separate days using different levels of selection pressure resulting in a different percent GFP positive for the i53 population (i.e. for cells that express published i53 peptide (SEQ ID NO:2) fused to one of the adenylate cyclase fragments).
(§3) There was a high degree of correlation between the two experiments and between replicates (FIG. 2). From these screens, about 230 amino acid changes were identified for which the average enrichment was positive for at least one of the experiments (Table 1). […] To validate that the amino acid changes identified from the pooled screen are reproducible on an individual basis, 24 amino acid changes identified from this screen were introduced individually into the i53 fusion protein plasmid and tested by flow cytometry for their effect on the percent positive population relative to i53 (FIG. 3). There was a strong correlation between the enrichment measured from the pooled screen and the percent reporter positive cells when mutations were screened individually.

[7] = target: T1, fragment of 53BP1 (a.a. 1221-1718); assay: Individual two-hybrid screen of amino acid changes, percent GFP (reporter) positive cells by flow cytometry; type: cell-based
Source text: as §2, §3

[8] = test system: 53BP1 foci; conditions: introduced into cells; cited from earlier work
[9] = test system: HDR; conditions: plasmid delivery, adeno-associated virus mediated gene delivery, or delivery of mRNA; cited from earlier work

53BP1 (amino acids 1484-1603) fused to MBP, sequence (Q12888 1484-1603, looked up): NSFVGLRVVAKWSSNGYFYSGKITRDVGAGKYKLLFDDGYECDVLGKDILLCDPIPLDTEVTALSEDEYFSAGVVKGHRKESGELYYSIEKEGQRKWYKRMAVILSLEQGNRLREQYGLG

Row | Substance | Response ([1]; 53BP1 0.0102 μM) | Response ([1]; 53BP1 0.0511 μM) | Response ([1]; 53BP1 0.1022 μM) | Response ([1]; 53BP1 0.2045 μM) | Response ([1]; 53BP1 1.02 μM) | Response ([1]; 53BP1 5.11 μM) | Response ([1]; 53BP1 20.5 μM) | rate of HDR [2] | rate of HDR [3] | HDR rate [4] | ability to enhance HDR [5] | KD (M) ([1]; 1:1 binding model, global fit over all 53BP1 concentrations) | i53 percent positive ([6]; experiment one) | GFP positive population ([6]; high selection pressure experiment) | GFP positive population ([6]; low selection pressure experiment) | Percent GFP Positive Rep 1 ([7]; replicate 1, amino acid change in i53 fusion protein plasmid) | Percent GFP Positive Rep 2 ([7]; replicate 2) | Percent GFP Positive Rep 3 ([7]; replicate 3) | formation of ionizing radiation induced 53BP1 foci [8] | rates of HDR [9]
1 | CM1: i53 with K6R, T7M, T12M, T14E, K33H, A46Q, S65P, L67K, H68M; N-terminal His tag | 0.4913 | 1.3298 | 1.6825 | 2.0092 | 2.5002 | 2.738 | 2.9739 | increase rates of HDR | increase rates of HDR | larger increase in HDR rate | – | – | – | – | – | – | – | – | – | –
2 | CM1tf: tag-free version of CM1 | – | – | – | – | – | – | – | – | – | – | equivalent to that of His-tagged CM1 | – | – | – | – | – | – | – | – | –
3 | CM7: i53 with K6R, K33H, A46Q, S65P; N-terminal His tag | 0.099 | 0.3578 | 0.5715 | 0.8611 | 1.5108 | 2.0067 | 2.4923 | – | – | – | – | – | – | – | – | – | – | – | – | –
4 | i53 DM: 53BP1 binding deficient i53 variant with P69L, L70V [reference compound] | – | – | – | – | – | – | – | – | – | – | – | Response was too low to get a good fit to the data | – | – | – | – | – | – | – | –
5 | i53: published ubiquitin variant inhibitor of 53BP1 (Canny et al.); tested with N-terminal His tag and linker (SEQ ID NO:3) [reference compound] | 0.0176 | 0.0537 | 0.104 | 0.1877 | 0.6247 | 1.2658 | 1.954 | – | – | increase in HDR rates | – | – | approximately 30% | ~3% | ~17% | 9% | 7.6% | 11.8% | inhibited the formation ionizing radiation induced 53BP1 foci | improve the rates of HDR
